Experimental data from article PMC9817130 (2023).

B1: P3E6 monoclonal antibody (IgG) (antibody, V domains shown)
VH: EVQLLDSGGGLVQPGGSLRLSCAVSGFTFSNYAMNWVRQTPGKELEWVSAISGTGDDTHYADSVRGRFTISSDNSKNTVYLQMNSLRVEDTAIYYCAKAISRYPWGCLDYWGQGTLVTVSS
VL: not shown
B2: P1D9 monoclonal antibody (IgG) (antibody, V domains shown)
VH: EVQLVQSGAEVKKPGSSVRVSCKASGGTFGDDSITWVRQAPGQGLEWMGGIFPLIGKTHYAQRFQGRLTVTADKSTSTAYMELSGLRSEDTAIYYCARDWGTTLTAFDIWGQGTMVTVSS
VL: DIQMTQSPSSLSASVGDTVTITCRAGQTINTFLNWYQQKPGKAPKLLIYAASTLQSGVPSRFSGSGSGTDFTLTINSLQPEDFATYYCQQSYSNLYTFSQGTKVEIK
B3: P2D9 monoclonal antibody (IgG) (antibody, V domains shown)
VH: EVQLVESGAEVKKPGSSVKVSCKASGDTFYTFDISWVRQAPGQGLEWMGGISPVFDAPNYAQKFQDRVTITADKSTSTAYMELSSLRSEDTAIYYCVKPTYSNYVWGIGAFDVWGQGTTVTVSS
VL: EIVLTQSPGTLSLSPGERATLSCRASQSVGNIYLAWYQQKPGQAPRLLIYGASTRATGIPDRFSGSGSGTDFTLTISRLEPEDFAVYYCQQYGDSLWTFGQGTKVEIK
B4: P2B4 monoclonal antibody (IgG) (antibody, V domains shown)
VH: EVQLVESGGGLVQPGRSLRLSCAASGFNFDDYAMHWARQVPGKGLEWVSGISGNSGSVEYADSVKGRFAMSRDNAKNSLYLEMNSLRTEDTALYYCAKETTPWGIYRSGGLDVWGQGTTVTVSS
VL: DIQMTQSPSSLSASVGDRVTITCRASQSIHSFLSWYQQKPGKAPKLLINSASTLQSGVPPWFSGSGSGTDFTLTISSLQPEDFATYYCQQSYIAPWTFGQGTKVEIK

Assays:
[1] = biological target: T1, SARS-CoV-2 WT RBD protein (Sino Biological) (SARS-CoV-2, UniProt P0DTC2 319-541); experiment: SPR
[2] = biological target: T1, SARS-CoV-2 WT RBD protein (Sino …); experiment: SPR; remark: listed apart in the source

Binder	koff [1] [s⁻¹]	Kd [2] [nM]
B1	0.00014	0.558
B2	7.68e-05	0.188
B3	4.34e-05	0.202
B4	1.37e-05	0.143
